# Paper PMC3374832, “The Structure of the Oligomerization Domain of Lsr2 from Mycobacterium tuberculosis Reveals a Mechanism for Chromosome Organization and Protection” (PLoS ONE, 2012)
# Target: the molecule itself
# Test: SDS-PAGE
protein,measurement,value
"full-length Lsr2 from Mycobacterium tuberculosis (natural protein, Lsr2 (Rv3597c) of Mycobacterium tuberculosis H37Rv, full length; also called Rv3597c) not shown",binding result,binds
